According to the supplement of paper PMC11246515:
± gives the standard deviation of the averaged measurements.

Test: total protein half-life in vivo (active degradation + dilution); higher = more stable protein
[1] = E. coli NCM3722 delta-clpP delta-lon delta-hslV, growth: N-lim chemostat, doubling time 6 h
[2] = E. coli NCM3722 delta-clpP, growth: N-lim chemostat, doubling time 6 h
[3] = E. coli NCM3722 delta-hslV, growth: N-lim chemostat, doubling time 6 h
[4] = E. coli NCM3722 delta-lon, growth: N-lim chemostat, doubling time 6 h
[5] = E. coli NCM3722 delta-smpB, growth: N-lim chemostat, doubling time 6 h
[6] = wild type E. coli NCM3722, growth: C-lim chemostat, doubling time 6 h
[7] = wild type E. coli NCM3722, growth: C-lim chemostat, doubling time 12 h
[8] = wild type E. coli NCM3722, growth: N-lim chemostat, doubling time 6 h
[9] = wild type E. coli NCM3722, growth: N-lim chemostat, doubling time 12 h
[10] = wild type E. coli NCM3722, growth: P-lim chemostat, doubling time 6 h
[11] = wild type E. coli NCM3722, growth: P-lim chemostat, doubling time 12 h
[12] = wild type E. coli NCM3722, growth: C-lim chemostat, doubling time 3 h

Sequence | total protein half-life in vivo [1] [h] | total protein half-life in vivo [2] [h] | total protein half-life in vivo [3] [h] | total protein half-life in vivo [4] [h] | total protein half-life in vivo [5] [h] | total protein half-life in vivo [6] [h] | total protein half-life in vivo [7] [h] | total protein half-life in vivo [8] [h] | total protein half-life in vivo [9] [h] | total protein half-life in vivo [10] [h] | total protein half-life in vivo [11] [h] | total protein half-life in vivo [12] [h]
MFKPHVTVACVVHAEGKFLVVEETINGKALWNQPAGHLEADETLVEAAARELWEETGISAQPQHFIRMHQWIAPDKTPFLRFLFAIELEQICPTQPHDSDIDCCRWVSAEEILQASNLRSPLVAESIRCYQSGQRYPLEMIGDFNWPFTKGVI [P0AEI6] | 4.74 ± 0.38 | 4.42 ± 0.56 | 4.45 | 4.69 ± 0.34 | 4.929 ± 0.049 | 5.3 ± 0.12 | 11.6 ± 1.9 | 4.54 ± 0.27 | 6.249 ± 0.042 | 5.49 ± 0.18 | 11.12 ± 0.055 | 
MKAFNKLFSLVVASVLVFSLAGCGDKEESKKFSANLNGTEIAITYVYKGDKVLKQSSETKIQFASIGATTKEDAAKTLEPLSAKYKNIAGVEEKLTYTDTYAQENVTIDMEKVDFKALQGISGINVSAEDAKKGITMAQMELVMKAAGFKEVK | 5.1 | 5.39 | 5.31 | 5.76 ± 0.26 | 4.61 ± 0.12 | 4.07 ± 0.38 | 7.55 | 5.76 ± 0.11 | 9.71 ± 1.6 | 5.3 |  | 2.68
MRTTIAVVLGAISLTSAFVFADKPDVARSANDEVSTLFFGHDDRVPVNDTTQSPWDAVGQLETASGNLCTATLIAPNLALTAGHCLLTPPKGKADKAVALRFVSNKGLWRYEIHDIEGRVDPTLGKRLKADGDGWIVPPAAAPWDFGLIVLRNPPSGITPLPLFEGDKAALTAALKAAGRKVTQAGYPEDHLDTLYSHQNCEVTGWAQTSVMSHQCDTLPGDSGSPLMLHTDDGWQLIGVQSSAPAAKDRWRADNRAISVTGFRDKLDQLSQK | 5.08 ± 0.47 | 5.58 ± 0.3 | 6.26 ± 0.068 | 5.8 ± 0.71 | 4.76 ± 0.16 | 4.406 ± 0.0069 | 9.64 ± 2.3 | 5.29 ± 0.23 | 10.9 ± 0.45 | 6.23 ± 0.28 | 11.4 ± 1.1 | 2.07 ± 0.13
MKNFEVLQPLQNSLSGLPLWVSERILQQINQLTHYEPVIGIMGKTGAGKSSLCNALFAGEVSPVSDVAACTRDPLRFRLQIGEHFMTIVDLPGVGESGVRDTEYAALYREQLPRLDLILWLIKADDRALATDEHFYRQVIGEAYRHKMLFVISQSDKAEPTSGGNILSTEQKQNISRKICLLHELFQPVHPVCAVSVRLQWGLRVMAERMIKCLPREASSPVVALLQHPFRTTVAREQARDDFGETVGAILDTVSTFPLIPAPVRTIIQAVRSSVVSVARAVWDFFF |  |  | 3.97 |  |  |  | 10.6 |  |  |  |  | 
MKNVGDLMQRLQKMMPAHIKPAFKTGEELLAWQKEQGAIRSAALERENRAMKMQRTFNRSGIRPLHQNCSFENYRVECEGQMNALSKARQYVEEFDGNIASFIFSGKPGTGKNHLAAAICNELLLRGKSVLIITVADIMSAMKDTFRNSGTSEEQLLNDLSNVDLLVIDEIGVQTESKYEKVIINQIVDRRSSSKRPTGMLTNSNMEEMTKLLGERVMDRMRLGNSLWVIFNWDSYRSRVTGKEY [P0AEF0] | 3.95 ± 0.25 | 2.75 ± 0.059 | 2.11 ± 0.34 | 2.64 ± 0.32 | 2.33 ± 0.07 | 4.67 ± 0.49 | 5.08 ± 0.67 | 2.18 ± 0.26 | 3.42 ± 0.18 | 3.49 ± 0.45 | 7.41 ± 2.5 | 2.05 ± 0.26
MKITVLGCGALGQLWLTALCKQGHEVQGWLRVPQPYCSVNLVETDGSIFNESLTANDPDFLATSDLLLVTLKAWQVSDAVKSLASTLPVTTPILLIHNGMGTIEELQNIQQPLLMGTTTHAARRDGNVIIHVANGITHIGPARQQDGDYSYLADILQTVLPDVAWHNNIRAELWRKLAVNCVINPLTAIWNCPNGELRHHPQEIMQICEEVAAVIEREGHHTSAEDLRDYVMQVIDATAENISSMLQDIRALRHTEIDYINGFLLRRARAHGIAVPENTRLFEMVKRKESEYERIGTGLPRPW [P0A9J4] |  |  |  | 3.4 | 3.22 ± 0.64 |  | 4.51 | 3.03 |  | 5.73 ± 0.2 |  | 
MENYLIDNLDRGILEALMGNARTAYAELAKQFGVSPGTIHVRVEKMKQAGIITGARIDVSPKQLGYDVGCFIGIILKSAKDYPSALAKLESLDEVTEAYYTTGHYSIFIKVMCRSIDALQHVLINKIQTIDEIQSTETLIVLQNPIMRTIKP [P0ACI6] |  | 5.95 | 6.24 ± 1.1 | 5.77 ± 0.21 | 5.72 ± 0.49 | 6.232 ± 0.029 | 11.4 | 5.85 ± 0.57 | 11.6 ± 0.12 | 6.94 ± 0.64 | 13.2 ± 0.17 | 3.51 ± 0.15
MPSTPEEKKKVLTRVRRIRGQIDALERSLEGDAECRAILQQIAAVRGAANGLMAEVLESHIRETFDRNDCYSREVSQSVDDTIELVRAYLK [P0AAP3] | 6.53 ± 0.38 | 5.29 ± 0.36 | 4.99 ± 0.14 | > 8 | 3.92 ± 0.13 | 5.52 ± 0.22 | 8.3 ± 1.8 | 4.16 ± 0.36 | 7.59 | 4.67 ± 1.9 | 8.57 ± 0.52 | 2.5 ± 0.24
MKTPLVTREGYEKLKQELNYLWREERPEVTKKVTWAASLGDRSENADYQYNKKRLREIDRRVRYLTKCLENLKIVDYSPQQEGKVFFGAWVEIENDDGVTHRFRIVGYDEIFGRKDYISIDSPMARALLKKEVGDLAVVNTPAGEASWYVNAIEYVKP | 4.94 ± 0.26 | 3.85 ± 0.086 | 3.36 ± 0.21 | 4.34 ± 0.27 | 3.07 ± 0.3 | 4.63 ± 0.26 | 7.33 ± 1.7 | 3.48 ± 0.33 | 5.226 ± 0.025 | 4.65 ± 0.57 | 8.01 ± 0.72 | 2.83 ± 0.18
